Changes are numbered by the printed parent chain. Blank lines part the entries; values can stand above or below the binder they belong to.
Assays:
[1] = target: T1, V459A (Homo sapiens, UniProt P78325); experiment: high-throughput flow cytometry, HEK293 cells with mutant ADAM8, high stringency; range in parentheses; dotted box
T1 construct: expressed on HEK293 cells; also called human ADAM8 point mutant V459A
T1 sequence (ADAM8, looked up): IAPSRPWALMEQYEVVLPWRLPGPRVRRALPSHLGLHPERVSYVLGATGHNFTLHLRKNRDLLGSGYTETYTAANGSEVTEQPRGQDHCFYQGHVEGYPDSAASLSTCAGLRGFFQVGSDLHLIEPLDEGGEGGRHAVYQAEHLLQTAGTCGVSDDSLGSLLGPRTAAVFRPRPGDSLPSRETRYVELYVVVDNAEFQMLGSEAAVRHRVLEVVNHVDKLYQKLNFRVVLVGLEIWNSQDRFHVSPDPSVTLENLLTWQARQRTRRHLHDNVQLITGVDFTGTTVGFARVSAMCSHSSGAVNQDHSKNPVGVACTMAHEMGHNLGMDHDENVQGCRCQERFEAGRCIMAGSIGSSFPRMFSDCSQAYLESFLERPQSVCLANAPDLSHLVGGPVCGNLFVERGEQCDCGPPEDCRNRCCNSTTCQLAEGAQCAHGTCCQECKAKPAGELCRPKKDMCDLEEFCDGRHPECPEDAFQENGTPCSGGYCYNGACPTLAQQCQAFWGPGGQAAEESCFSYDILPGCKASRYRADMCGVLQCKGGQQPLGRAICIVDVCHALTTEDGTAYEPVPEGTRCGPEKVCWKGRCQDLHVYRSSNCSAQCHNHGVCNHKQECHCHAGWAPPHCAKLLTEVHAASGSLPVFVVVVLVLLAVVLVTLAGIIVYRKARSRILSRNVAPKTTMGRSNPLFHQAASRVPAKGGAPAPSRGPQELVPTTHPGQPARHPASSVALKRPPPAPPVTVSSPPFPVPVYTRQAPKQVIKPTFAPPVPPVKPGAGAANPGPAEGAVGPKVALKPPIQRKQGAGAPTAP
Description: (§1) A variety of experimental parameters were optimized for high-throughput flow cytometry including blocking buffer, and primary and secondary antibody concentrations, to identify the optimal conditions for screening. Through these studies ADP2 and ADP13 were determined to be high affinity binding antibodies.
(§2) Thus, for these studies antigen-binding fragments (Fabs) of ADP2 and ADP13, which bind with lower affinity than the full antibody, were generated. In addition, higher binding stringency conditions were tested, such as increased pH, salinity, and temperature, and/or increased washing, to weaken binding sufficiently to allow identification of critical binding residues in flow cytometry. The final experimental flow cytometry conditions were: primary antibody incubation with ADP2 Fab (0.50 μg/ml), ADP13 Fab (5.00 μg/ml) and Control Ab (0.16 μg/ml) for 60 minutes in flow cytometry buffer containing 10% goat serum in PBS (Ca²⁺ and Mg²⁺ free). […] Samples were washed three times after primary antibody incubation and twice after secondary antibody incubation with PBS (Ca²⁺ and Mg′ free). Next, HEK293 cells expressing WT or mutated ADAM8 proteins or EV DNA were incubated with ADP2 or ADP13 Fabs or Control Ab at their optimal concentrations. Fab binding was detected using Alexa Fluor 488-conjugated secondary antibodies and mean cellular fluorescence determined using the Intellicyt iQue flow cytometry platform. […] This counter-screen strategy facilitates the exclusion of mutants that are locally misfolded or that have an expression defect. Binding of each test Fab to each mutant clone in the alanine scanning library was determined, in duplicate, by high-throughput flow cytometry.

[2] = target: T2, R431A (Homo sapiens, UniProt P78325); experiment: as above
T2 construct: expressed on HEK293 cells; also called human ADAM8 point mutant R431A
T2 sequence (ADAM8, looked up): T1 sequence (ADAM8, looked up) with R415A, A443V
Description: as §1, §2

Binding Reactivity (% WT) [1]: 27.8 % WT
B1: ADP13 Fab (Fab, V domains shown)
VH: EVQLQQSGPEMVKPGTSVKISCKASGYTFTDYYINWVKQSHGKSLEWIGDISPNIGGATYNPKFKGKAILTVDKSARTAYMELRSLTSEDSAVYCCTRGGSSYPYFYAMDYWGQGTSVTVSS
VL: DIVMSQSPSSLAVSVGEKVTMSCKSSQSLLYSSNQKKYLAWYQQKPGQSPKLLIYWASTRESGVPDRFTGSGSGTDFTLTISSVKAEDLAVYYCQQFYSYPYTFGGGTKLEINR

Binding Reactivity (% WT) [2]: 26.2 % WT
B2: ADP2 Fab (Fab, V domains shown)
VH: EVKLVESGGGLVQPGGSLSLSCAASGFSFPDYYMSWVRQPPGKALEWLGFIRDSANGYTTEYIASVKGRFTFSRDNSQSILYLQMNALRAEDSATYYCARYSRYYGMDYWGQGTSVTVSS
VL: SIVMTQTPKILLVSAGDRVTITCKASQTVNYDVAWYQQKPGQSPKPVIYFASNRYTGVPDRFTGSGFGTDFTFTISTVQAEDLAVYFCQQDYSAPWTFGGGTKLEIK
